Laboratory results published in paper PMC11098746 (2024).
No end group written: not given here.

B1: ADP116 (protein)
chain: MVTLQTWLVQALFIFLTTESTGELLDPCGYISPESPVVQLHSNFTAVCVLKEKCMDYFHVNANYIVWKTNHFTIPKEQYTIINRTASSVTFTDIASLNIQLTCNILTFGQLEQNVYGITIISGLPPEKPKNLSCIVNEGKKMRCEWDGGRETHLETNFTLKSEWATHKFADCKAKRDTPTSCTVDYSTVYFVNIEVWVEAENALGKVTSDHINFDPVYKVKPNPPHNLSVINSEELSSILKLTWTNPSIKSVIILKYNIQYRTKDASTWSQIPPEDTASTRSSFTVQDLKPFTEYVFRIRCMKEDGKGYWSDWSEEASGITYEDRPSKAPSFWYKIDPSHTQGYRTVQLVWKTLPPFEANGKILDYEVTLTRWKSHLQNYTVNATKLTVNLTNDRYLATLTVRNLVGKSDAAVLTIPACDFQATHPVMDLKAFPKDNMLWVEWTTPRESVKKYILEWCVLSDKAPCITDWQQEDGTVHRTYLRGNLAESKCYLITVTPVYADGPGSPESIKAYLKQAPPSKGPTVRTKKVGKNEAVLEWDQLPVDVQNGFIRNYTIFYRTIIGNETAVNVDSSHTEYTLSSLTSDTLYMVRMAAYTDEGGKDGPEFTFTTPKFAQGEIE
modifications: bait human Fc-tagged dimer
B2: ADP098 (protein)
chain: RELPAQKWWHTGALYRIGDLQAFQGHGAGNLAGLKGRLDYLSSLKVKGLVLGPIHKNQKDDVAQTDLLQIDPNFGSKEDFDSLLQSAKKKSIRVILDLTPNYRGENSWFSTQVDTVATKVKDALEFWLQAGVDGFQVRDIENLKDASSFLAEWQNITKGFSEDRLLIAGTNSSDLQQILSLLESNKDLLLTSSYLSDSGSTGEHTKSLVTQYLNATGNRWCSWSLSQARLLTSFLPAQLLRLYQLMLFTLPGTPVFSYGDEIGLDAAALPGQPMEAPVMLWDESSFPDIPGAVSANMTVKGQSEDPGSLLSLFRRLSDQRSKERSLLHGDFHAFSAGPGLFSYIRHWDQNERFLVVLNFGDVGLSAGLQASDLPASASLPAKADLLLSTQPGREEGSPLELERLKLEPHEGLLLRFPYAA
modifications: bait human Fc-tagged dimer
B3: ADP295 (protein)
chain: MALLLCFVLLCGVVDFARSLSITTPEEMIEKAKGETAYLPCKFTLSPEDQGPLDIEWLISPADNQKVDQVIILYSGDKIYDDYYPDLKGRVHFTSNDLKSGDASINVTNLQLSDIGTYQCKVKKAPGVANKKIHLVVLVKPSGARCYVDGSEEIGSDFKIKCEPKEGSLPLQYEWQKLSDSQKMPTSWLAEMTSSVISVKNASSEYSGTYSCTVRNRVGSDQCLLRLNVVPPSNKAG
modifications: bait human Fc-tagged dimer
B4: ADP114 (protein)
chain: MVMSVGLSLLLPLWGRTFLLLLSVVMAQSHWPSEPSEAVRDWENQLEASMHSVLSDLHEAVPTVVGIPDGTAVVGRSFRVTIPTDLIASSGDIIKVSAAGKEALPSWLHWDSQSHTLEGLPLDTDKGVHYISVSATRLGANGSHIPQTSSVFSIEVYPEDHSDLQSVRTASPDPGEVVSSACAADEPVTVLTVILDADLTKMTPKQRIDLLHRMRSFSEVELHNMKLVPVVNNRLFDMSAFMAGPGNPKKVVENGALLSWKLGCSLNQNSVPDIHGVEAPAREGAMSAQLGYPVVGWHIANKKPPLPKRVRRQIHATPTPVTAIGPPTTAIQEPPSRIVPTPTSPAIAPPTETMAPPVRDPVPGKPTVTIRTRGAIIQTPTLGPIQPTRVSEAGTTVPGQIRPTMTIPGYVEPTAVATPPTTTTKKPRVSTPKPATPSTDSTTTTTRRPTKKPRTPRPVPRVTTKVSITRLETASPPTRIRTTTSGVPRGGEPNQRPELKNHIDRVDAWVGTYFEVKIPSDTFYDHEDTTTDKLKLTLKLREQQLVGEKSWVQFNSNSQLMYGLPDSSHVGKHEYFMHATDKGGLSAVDAFEIHVHRRPQGDRAPARFKAKFVGDPALVLNDIHKKIALVKKLAFAFGDRNCSTITLQNITRGSIVVEWTNNTLPLEPCPKEQIAGLSRRIAEDDGKPRPAFSNALEPDFKATSITVTGSGSCRHLQFIPVVPPRRVPSEAPPTEVPDRDPEKSSEDDVYLHT
modifications: bait human Fc-tagged dimer
B5: ADP106 (protein)
chain: MAGGRCGPQLTALLAAWIAAVAATAGPEEAALPPEQSRVQPMTASNWTLVMEGEWMLKFYAPWCPSCQQTDSEWEAFAKNGEILQISVGKVDVIQEPGLSGRFFVTTLPAFFHAKDGIFRRYRGPGIFEDLQNYILEKKWQSVEPLTGWKSPASLTMSGMAGLFSISGKIWHLHNYFTVTLGIP
modifications: bait human Fc-tagged dimer
B6: ADP307 (protein)
chain: MALSVPLLLGLLGLAVAEPAVYFKEQFLDGDGWTSRWIESKHKSDFGKFVLSSGKFYGDEEKDKGLQTSQDARFYALSASFEPFSNKGQTLVVQFTVKHEQNIDCGGGYVKLFPNSLDQTDMHGDSEYNIMFGPDICGPGTKKVHVIFNYKGKNVLINKDIRCKDDEFTHLYTLIVRPDNTYEVKIDNSQVESGSLEDDWDFLPPKKIKDPDASKPEDWDERAKIDDPTDSKPEDWDKPEHIPDPDAKKPEDWDEEMDGEWEPPVIQNPEYKGEWKPRQIDNPDYKGTWIHPEIDNPEYSPDPSIYAYDNFGVLGLDLWQVKSGTIFDNFLITNDEAYAEEFGNETWGVTKAAEKQMKDKQDEEQRLKEEEEDKKRKEEEEAEDKEDDEDKDEDEEDEEDKEEDEEEDVPGQAKDEL
modifications: bait human Fc-tagged dimer
B7: ADP385 (protein)
chain: TIKANSEACRDGLRAVMECRNVTHLLQQELTEAQKGFQDVEAQAATCNHTVMALMASLDAEKAQGQKKVEELEGEITTLNHKLQDASAEVERLRRENQVLSVRIADKKYYPSSQDSSSAAAPQLLIVLLGLSALLQ
modifications: bait human Fc-tagged dimer
B8: ADP328 (peptide)
chain: MAIHKALVMCLGLPLFLFPGAWAQGHVPPGCSQGLNPLYYNLCDRSGAWG
modifications: cysteine pairing not given here; also: human Fc-tagged dimer
B9: ADP280 (protein)
chain: TPPNAIVFTYGHLKVADMVKTGVIMNIIGVFCVFLAVNTWGRAIFDLDHFPDWANVTHIET
modifications: also: human Fc-tagged dimer
B10: ADP318 (protein)
chain: MAGRLWPLLLSILTATAVPGPSLRRPSRELDATPRMTIPYEELSGTRHFKGQAQNYSTLLLEEASARLLVGARGALFSLSANDIGDGAHKEIHWEASPEMQSKCHQKGKNNQTECFNHVRFLQRLNSTHLYACGTHAFQPLCAAIDAEAFTLPTSFEEGKEKCPYDPARGFTGLIIDGGLYTATRYEFRSIPDIRRSRHPHSLRTEETPMHWLNDAEFVFSVLVRESKASAVGDDDKVYYFFTERATEEGSGSFTQSRSSHRVARVARVCKGDLGGKKILQKKWTSFLKARLICHIPLYETLRGVCSLDAETSSRTHFYAAFTLSTQWKTLEASAICRYDLAEIQAVFAGPYMEYQDGSRRWGRYEGGVPEPRPGSCITDSLRSQGYNSSQDLPSLVLDFVKLHPLMARPVVPTRGRPLLLKRNIRYTHLTGTPVTTPAGPTYDLLFLGTADGWIHKAVVLGSGMHIIEETQVFRESQSVENLVISLLQHSLYVGAPSGVIQLPLSSCSRYRSCYDCILARDPYCGWDPGTHACAAATTIANRTALIQDIERGNRGCESSRDTGPPPPLKTRSVLRGDDVLLPCDQPSNLARALWLLNGSMGLSDGQGGYRVGVDGLLVTDAQPEHSGNYGCYAEENGLRTLLASYSLTVRPATPAPAPKAPATPGAQLAPDVRL
modifications: bait human Fc-tagged dimer
B11: ADP107 (protein)
chain: MGTKAQVERKLLCLFILAILLCSLALGSVTVHSSEPEVRIPENNPVKLSCAYSGFSSPRVEWKFDQGDTTRLVCYNNKITASYEDRVTFLPTGITFKSVTREDTGTYTCMVSEEGGNSYGEVKVKLIVLVPPSKPTVNIPSSATIGNRAVLTCSEQDGSPPSEYTWFKDGIVMPTNPKSTRAFSNSSYVLNPTTGELVFDPLSASDTGEYSCEARNGYGTPMTSNAVRMEAVERNVGV
modifications: bait human Fc-tagged dimer
B12: ADP370 (protein)
chain: MICQKFCVVLLHWEFIYVITAFNLSYPITPWRFKLSCMPPNSTYDYFLLPAGLSKNTSNSNGHYETAVEPKFNSSGTHFSNLSKTTFHCCFRSEQDRNCSLCADNIEGKTFVSTVNSLVFQQIDANWNIQCWLKGDLKLFICYVESLFKNLFRNYNYKVHLLYVLPEVLEDSPLVPQKGSFQMVHCNCSVHECCECLVPVPTAKLNDTLLMCLKITSGGVIFQSPLMSVQPINMVKPDPPLGLHMEITDDGNLKISWSSPPLVPFPLQYQVKYSENSTTVIREADKIVSATSLLVDSILPGSSYEVQVRGKRLDGPGIWSDWSTPRVFTTQDVIYFPPKILTSVGSNVSFHCIYKKENKIVPSKEIVWWMNLAEKIPQSQYDVVSDHVSKVTFFNLNETKPRGKFTYDAVYCCNEHECHHRYAELYVIDVNINISCETDGYLTKMTCRWSTSTIQSLAESTLQLRYHRSSLYCSDIPSIHPISEPKDCYLQSDGFYECIFQPIFLLSGYTMWIRINHSLGSLDSPPTCVLPDSVVKPLPPSSVKAEITINIGLLKISWEKPVFPENNLQFQIRYGLSGKEVQWKMYEVYDAKSKSVSLPVPDLCAVYAVQVRCKRLDGLGYWSNWSNPAYTVVMDIKVPMRGPEFWRIINGDTMKKEKNVTLLWKPLMKNDSLCSVQRYVINHHTSCNGTWSEDVGNHTKFTFLWTEQAHTVTVLAINSIGASVANFNLTFSWPMSKVNIVQSLSAYPLNSSCVIVSWILSPSDYKLMYFIIEWKNLNEDGEIKWLRISSSVKKYYIHDHFIPIEKYQFSLYPIFMEGVGKPKIINSFTQDDIEKHQSDA
modifications: bait human Fc-tagged dimer
B13: ADP315 (protein)
chain: MARAHWGCCPWLVLLCACAWGHTKPVDLGGQDVRNCSTNPPYLPVTVVNTTMSLTALRQQMQTQNLSAYIIPGTDAHMNEYIGQHDERRAWITGFTGSAGTAVVTMKKAAVWTDSRYWTQAERQMDCNWELHKEVGTTPIVTWLLTEIPAGGRVGFDPFLLSIDTWESYDLALQGSNRQLVSITTNLVDLVWGSERPPVPNQPIYALQEAFTGSTWQEKVSGVRSQMQKHQKVPTAVLLSALEETAWLFNLRASDIPYNPFFYSYTLLTDSSIRLFANKSRFSSETLSYLNSSCTGPMCVQIEDYSQVRDSIQAYSLGDVRIWIGTSYTMYGIYEMIPKEKLVTDTYSPVMMTKAVKNSKEQALLKASHVRDAVAVIRYLVWLEKNVPKGTVDEFSGAEIVDKFRGEEQFSSGPSFETISASGLNAALAHYSPTKELNRKLSSDEMYLLDSGGQYWDGTTDITRTVHWGTPSAFQKEAYTRVLIGNIDLSRLIFPAATSGRMVEAFARRALWDAGLNYGHGTGHGIGNFLCVHEWPVGFQSNNIAMAKGMFTSIEPGYYKDGEFGIRLEDVALVVEAKTKYPGSYLTFEVVSFVPYDRNLIDVSLLSPEHLQYLNRYYQTIREKVGPELQRRQLLEEFEWLQQHTEPLA
modifications: bait human Fc-tagged dimer

The binders below were run against Circumsporozoite protein (CSP) (Plasmodium falciparum (isolate 3D7), UniProt Q7K740) (assay: AVEXIS screen signal:noise (double-corrected)).
Chain of Circumsporozoite protein (CSP) (Q7K740 19-374): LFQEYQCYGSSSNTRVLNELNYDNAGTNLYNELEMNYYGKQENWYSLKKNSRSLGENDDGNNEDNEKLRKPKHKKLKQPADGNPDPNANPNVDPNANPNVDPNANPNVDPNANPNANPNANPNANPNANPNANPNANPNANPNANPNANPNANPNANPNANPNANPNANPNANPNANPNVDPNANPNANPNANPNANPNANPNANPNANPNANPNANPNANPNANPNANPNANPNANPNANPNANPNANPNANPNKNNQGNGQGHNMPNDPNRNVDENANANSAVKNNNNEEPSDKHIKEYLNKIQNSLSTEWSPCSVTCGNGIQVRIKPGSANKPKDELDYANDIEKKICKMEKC

Binder	binding score
B1	1.88
B2	1.12
B3	1.09
B4	1.2
B5	1.3
B6	1.67
B7	0.643
B8	1.01
B9	0.749
B10	3.59
B11	0.991
B12	1.01
B13	2.59
